Assay results reported in PMC9006650, “Phosphorylation and acetylation of mitochondrial transcription factor A promote transcription processivity without compromising initiation or DNA compaction”.

Target: T1, TFAM (unmodified) (Homo sapiens, UniProt Q00059 43-246)
T1 sequence: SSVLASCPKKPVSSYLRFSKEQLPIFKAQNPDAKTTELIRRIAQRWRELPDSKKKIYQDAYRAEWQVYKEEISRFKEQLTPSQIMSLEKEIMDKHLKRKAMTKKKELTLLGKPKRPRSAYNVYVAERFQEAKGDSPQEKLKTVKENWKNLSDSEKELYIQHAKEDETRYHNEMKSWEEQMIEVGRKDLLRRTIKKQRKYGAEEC
Assay: EMSA; 40 nM DNA; 50, 25, 12 bp per TFAM; no gel shift (legend: very low affinity); pUC19: 50 mM Tris-acetate pH 8.0, 100 mM K acetate, 5 mM Mg acetate, 1 mM DTT, 37 C 30 min, 1% agarose at 4 C; poly-T: 25 mM Tris-HCl pH 8.0, 70 mM NaCl, 10 mM
Settings: protein: recombinant; tags: N-terminal His6 removed with TEV protease; label: 5'-32P; single strand

TTTTTTTTTTTTTTTTTTTTTTTTTTTTTT (ssDNA) [poly-T ssDNA 30-mer]: no binding.
